Measured values published in paper doi:10.1101/2024.06.06.597810 (2024).
Residue numbers refer to the chain shown, from its start. Names may count otherwise. Where no end group is shown, it is not given here.

T1: Biotin-labeled MHV stem helix peptide (MHV, also: biotin label, position not given here)
T1 chain: PDFKEELDKWFKNQ

B1: S2P6 UCA VH Y32Q/M48I double mutant Fab (Fab, V domains shown)
VH: QVQLVQSGAEVKKPGASVKVSCKASGYTFTSQYMHWVRQAPGQGLEWIGIINPSGGSTSYAQKFQGRVTMTRDTSTSTVYMELSSLRSEDTAVYYCARGSPKGAFDYWGQGTLVTVSS
VL: not shown
B2: S2P6 UCA VH M48I/S56H double mutant Fab (Fab, V domains shown)
VH: B1 VH with Q32Y, S57H
VL: not shown
B3: S2P6 UCA VH Y32Q Fab (Fab, V domains shown)
VH: B1 VH with I48M
VL: not shown
B4: S2P6 UCA VH S56H Fab (Fab, V domains shown)
VH: B1 VH with Q32Y, I48M, S57H
VL: not shown
B5: S2P6 UCA VH M48I Fab (Fab, V domains shown)
VH: B1 VH with Q32Y
VL: not shown
B6: S2P6 UCA VH Y32Q/M48I/S56H triple mutant Fab (Fab, V domains shown)
VH: B1 VH with S57H
VL: not shown

Target: T1, Biotin-labeled MHV stem helix peptide
Experiment: BLI

Point of comparison: B4, Kd 3760 nM. Against it:
- B1 — 3.2-fold lower, 1190 nM
- B2 — 2.9-fold lower, 1300 nM
- B3 — 1.7-fold lower, 2260 nM
- B5 — 5.1-fold lower, 731 nM
- B6 — 1.7-fold lower, 2230 nM
